This passage reports Binding activity (absorbance results from patent US20160200799A1.

What all share (assay): ELISA on coated viral particles
A general note: ELISA stands for enzyme-linked immunosorbent assay.

Assay [1] concerns the target Influenza virus A/California/7/2009pdm (H1N1pdm) (Influenza A virus A/California/7/2009pdm (H1N1pdm)).
The target of assay [2] is Influenza virus A/Panama/2007/1999 (H3N2) (Influenza A virus A/Panama/2007/1999 (H3N2)).
Assay [3] concerns the target Influenza virus A/Brisbane/59/2007 (H1N1) (Influenza A virus A/Brisbane/59/2007 (H1N1)).
The target of assay [4] is Influenza virus A/New Caledonia/20/1999 (H1N1) (Influenza A virus A/New Caledonia/20/1999 (H1N1)).

B1: Group 56 representative clone F083-318, Fab-cp3-type antibody (Fab, V domains shown)
VH: EVQLVQSGAEVKKPGSSVKVSCQASGSIFSNYAINWVRQAPGQGLEWMGGIVPIFGTTRFAQKFQGRLTITADEPRSTAYMELNNLISEDTAVYYCARAPLIYNWYYDLWGRGTLVTVSS
VL: EIVLTQSPSSLSASVGDRVTITCRASQGISNYLAWYQQKPGKVPKLLIYAASTLQSGVPSRFSGSGSGTDFTLTISSLQPEDVATYYCQKYNSAPHTFGPGTKVDIK
Take B1: the Binding activity (absorbance at 492 nm) worked out at 0.71 in assay [1], 0.16 in assay [2], 2.85 in assay [3] and 3.01 in assay [4].

B2: Group 63 representative clone F083-336, Fab-cp3-type antibody (Fab, V domains shown)
VH: QVQLQQSGAEVKQPGSSVKVSCKASGGIFRSNAISWVRQAPGQGLEWMGGIVALFGTANYAQKFQGRVTITADESTSTVYMELSSLRSEDTARYYCARNSGYHISGFYLDYWGQGTLVTVSS
VL: EIVLTQSPSSLSASVGDRVTITCRASQGISNYLAWYQQRPGKVPKLLIYTASTLLSGVPSRFSGGGSGTDYTLTISSLQPEDVATYYCQEYKSVPLTFGPGTKVEIK
B2: the Binding activity (absorbance at 492 nm) in assay [1] is 1.56; in assay [2] it was 0.15; in assay [3], 1.89; in assay [4], 1.61.

B3: Group 65 representative clone F083-366, Fab-cp3-type antibody (Fab, V domains shown)
VH: QVQLVQSGSEVKKPGSSVKVSCKASRGIFSSYAISWVRQAPGQGLEWMGAVIPMFGTLKYAENFQGRITISADKSMSAAYMELSSLRSEDTAVYYCARNYYGSGTYFNDAFDIWGQGTMVTVSS
VL: QSVLTQPPSGSGAPGQRVTISCTGGNSNIGAGYDVNGYQQLPGKAPKLLIYGNNNRPSGVPDRFSGSKSGTSASLAITGLQVEDEAHYYCQSYDNGLSGSVFGGGTQLTVLG
Take B3: the Binding activity (absorbance at 492 nm) in assay [1] amounted to 1.13; in assay [2], 0.18; in assay [3], 2.84; in assay [4], 2.93.

B4: Group 57 representative clone F083-103, Fab-cp3-type antibody (Fab, V domains shown)
VH: QVQLQQSGADVKKAGSSVKVSCKASGRTFGNYAISWVRQAPGQGLEWMGGITPIFGAANYAQKFQGRVTISADLSTRMVYMDLSSLRSDDTAFYYCAGHPTYHYGSAMDYWGQGTLVTVSS
VL: QSVLTQPPSVSAAPGQKVTITCSGSSSNIGNNYVSWYQQLPGTAPKLLISEGSNRPSGIPDRFSGSKSGTSATLGITGLQTGDEATYYCATWDDSLSVVLFGGGTRLTVLS
Consider B4, for which the Binding activity (absorbance at 492 nm) came to 1.82 in assay [1], 0.16 in assay [2], 2.39 in assay [3] and 2.43 in assay [4].

B5: Group 80 representative clone F083-373, Fab-cp3-type antibody (Fab, V domains shown)
VH: QVQLVQSGADVKKPGSSVRVSCKASGRTFGNYAISWVRQAPGQGLEWMGGITPIFGAANYAQKFQGRVTISADLSTTMVYMDLSSLRSDDTAFYYCAGHPTYYYGSPMDYWGQGTLVTVSS
VL: EIVLTQSPSSLSASVGDRVTITCRASQSIATYLNWYQQKPGKAPNLLIYAASNLQSGVPSRFSGSGSGTDFTLTISSLQPEDFATYVCLQSYSATLTFGGGTKVEIK
As for B5, the Binding activity (absorbance at 492 nm) in assay [1] came to 0.17; in assay [2] it was 0.13; in assay [3], 1.31; in assay [4], 1.39.

B6: Group 59 representative clone F083-351, Fab-cp3-type antibody (Fab, V domains shown)
VH: QVQLVQSGADVKKAGSSVKVSCKASGRTFGNYAISWVRQAPGQGLEWMGGITPIFGAANYAQKFQGRVTISADLSTRMVYMDLSSLRSDDTAFYYCAGHPMYHYGSAMDYWGQGTLVTVSS
VL: QSVLTQPPSASGTPGQRVSISCFGSRSNVGSSSVNWYQQLPGRAPKLLIQRNDQRPSGVPDRFSGSKSGTSASLAISGLQSDDESTYYCAAWDDSVKSVVFGGGTQLTVLG
Consider B6, for which the Binding activity (absorbance at 492 nm) in assay [1] amounted to 2.62; in assay [2], 0.21; in assay [3] it was 3.09; in assay [4], 3.21.

B7: Group 62 representative clone F083-349, Fab-cp3-type antibody (Fab, V domains shown)
VH: QVQLVQSGAEVRKPGSSVKVSCKASGVIFIKFAISWVRQAPGQGLEWMGGIIPMFGTTNYAQKFQGRVTITADGSTNTVYMELSSLTSEDTAVYYCAKEEGYYYGSGPLDSWGQGTLVTVSS
VL: DIVMTQSPDFLSVSLGERVTINCKSSQTVLNRSNNKNYLAWYQKKPGQPPRLLLYWSSTRESGVPDRFSGSGSETDFALTITNLQAEDLAVYFCQQFYDMPVTFGGGTKLEIK
Take B7: the Binding activity (absorbance at 492 nm) in assay [1] was found to be 2.79; in assay [2], 0.15; in assay [3], 2.93; in assay [4], 3.17.

B8: Group 38 representative clone F082-338, Fab-cp3-type antibody (Fab, V domains shown)
VH: QVQLQESGAEVKKPGSSVKVSCKASGGPFRSHAISWVRQAAGQGLEWMGGITAVFGTANYAQKFQGRVTITADESTNIVSMELSSLRSEDTAIYYCARSLGYHTQYNGMDVWGQGTTVTVSS
VL: DVVMTQSPSSVSASVGDRVTITCRASQGISSWLAWYQQKPGKAPKLLIYAASSLQSGVPSRFSGSGSGTDFTLTISSLQPEDFATYYCQQANSFPITFGQGTRLEIK
On to B8, for which the Binding activity (absorbance at 492 nm) was 2.82 in assay [1], 0.13 in assay [2], 2.93 in assay [3] and 3.01 in assay [4].

B9: Group 1 representative clone F080-227, Fab-cp3-type antibody (Fab, V domains shown)
VH: QVQLQESGAEVKKPGSSVKVSCKASGGIFRRNAISWVRQAPGQGLEWMGGIIAIFGTANYAQKFQGRVTITADESTSTVYMELSSLRPEDTAVYYCARGPNYYENFFDYWGQGTLVTVSS
VL: DIVMTQSPSSLSASVGDRLDLTCRASQDIANSLAWYKQRPGKAPELLVFGASRLEGGVPSRFSGTRAGTDFTLTISSLQPEDLGTYFCQQYFSFPRTFGQGTTLDLR
For the molecule B9, the Binding activity (absorbance at 492 nm) came to 2.95 in assay [1], 0.14 in assay [2], 3.1 in assay [3] and 3.15 in assay [4].

B10: Group 2 representative clone F082-220, Fab-cp3-type antibody (Fab, V domains shown)
VH: QVQLVQSGAEVKKPGSSVKVSCKASGGIFRSNAVSWVRQAPGQGLEWMGGIIAIFGTPKYAQKFQGRVTITADESTSTVYMELSGLRYEDTAVYYCARGPNYYESYFDYWGQGTLVTVSS
VL: DIVMTQSPPSLSASVGDRVTITCRASQGISNYLAWYQQKPGKAPKLLIFGASTLHSGVSSRFSGSGSGPDFTLTISSLQPEDAATYYCQKYHSAPLTFGGGTKVEMK
For the molecule B10, the Binding activity (absorbance at 492 nm) in assay [1] came to 2.72; in assay [2], 0.16; in assay [3] it was 3.15; in assay [4], 3.37.

B11: Group 58 representative clone F083-307, Fab-cp3-type antibody (Fab, V domains shown)
VH: QVQLQQSGADVKKPGSSVKVSCKASGGTFGNYAISWVRQAPGQGLEWMGGITPIFGPANYAQRFQGRVTISADISTRTAYMELSSLRSEDTAIYYCARHPTYYFGSAMEYWGQGTLVTVSS
VL: SYELTQPPSVSVAPGQTATITCGGDRIGTGPVHWYQQRPGRAPVLIIYGSTHRPSGIPERFSGSKSVNTATLSISGVGVGDEADYYCQVWDTSTAQPIVFGGGTKLTVLS
Turning to B11, the Binding activity (absorbance at 492 nm) in assay [1] amounted to 2.37; in assay [2], 0.19; in assay [3] it was 3.04; in assay [4], 3.3.

B12: Group 51 representative clone F083-302, Fab-cp3-type antibody (Fab, V domains shown)
VH: QVQLVQSGAEVKKPGSSVKVSCEASGATFSSNAFSWVRQAPGQGPEWMGGIITMFRKAEYAQKFQGRVTITAGELGSTAYMEVRSLTFEDTAVYYCARHSGYHLIGYFDSWGQGTLVTVSS
VL: QSVLTQPPSVSAAPGQKVTISCSGTTSNIGNNYVSWYQQLPGAAPKLLIYDNNKRPSGIPDRFSGSKSDTSATLGITGLQTGDEADYYCGTWVSSLSVWVFGGGTKLTVLG
As to B12, the Binding activity (absorbance at 492 nm) in assay [1] came to 1.55; in assay [2], 0.23; in assay [3], 2; in assay [4], 1.92.

B13: Group 43 representative clone F081-007, Fab-cp3-type antibody (Fab, V domains shown)
VH: QVQLQQSGAEVKKPGSSVKVSCKASGGIFRKNAISWVRQAPGQGLEWMGGISAIFGTANYAQKFQGRVTITADESSNTVYMDLSRLRSEDTAIYYCASHPTYHFDKSGYRFDSWGQGTLVTVSS
VL: QSVLTQPPSVSAAPGQKVTISCSGSSSNIGNNYVSWYQQLPGTAPKLLIYDNNKRPSGIPDRFSGSKSGTSATLGITGLQTGDEADYYCGTWDSSLSAGVFGGGTKLTVLG
Take B13: the Binding activity (absorbance at 492 nm) in assay [1] turned out to be 2.33; in assay [2] it was 0.14; in assay [3], 2.72; in assay [4], 2.84.

B14: Group 64 representative clone F083-301, Fab-cp3-type antibody (Fab, V domains shown)
VH: QVQLVQSGAEVKKPGSSVKVSCKASGGIFNSNAISWVRQAPGQGLEWMGGIIGIFGTANYAQKFQGRVTIAADQSTNTVFMELSSLTSEDTAVYFCARSRGYSFGYGTDYFDYWGQGTLVTVSS
VL: DIVMTQSPSTLSASVGDRVTITCRASQSISSWLAWYQQAPGKAPKLLIYEASKLQSGVPSRFSATGSGTEFTLTIASLQPEDFAIYYCQHYEAYPFSFGPGTKLDVK
With B14, the Binding activity (absorbance at 492 nm) in assay [1] was 0.46; in assay [2], 0.16; in assay [3], 1.44; in assay [4], 1.34.

B15: Group 44 representative clone F081-008, Fab-cp3-type antibody (Fab, V domains shown)
VH: QVQLVQSGAEVKKPGSSVKVSCKASGGTFSSFSTYTISWVRQAPGQGLEWMGRSIPLLGITNYAQKFQGRVTITADISTSTAYMELSSLRSEDTAVYYCARYQSSDYYNSEYFQHWGQGTLVTVSS
VL: EIVLTQSPGTLSLSLGERVTLSCRASQNVGTNYLAWYQQKPGQAPRLLIYGASSRATGVPDRFSGSGSGTDFTLTISRLAPEDFAVYYCQQYSSSPLTFGGGTKLEIK
With B15, the Binding activity (absorbance at 492 nm) in assay [1] amounted to 0.43; in assay [2], 0.17; in assay [3] it was 2.89; in assay [4], 3.25.
